This series in a line: soluble on expression in E. coli; label from the status in PepcDB or PDB records.
Turning to “MGSDKIHHHHHHVSPSILGQGEVEQLLTGTYRSLQNDPGRDTWVLFDMRGENLINTYLSGSNDFVNNEIPSNNGTLLTMWRGYYKAIYNANTTLSILSNLEPSEKNTHIEAQARFLRAYAYYCLATRWDGVPIIKDNTLENVKRDKQSAVFNFIKEELSFCIDEGHLKPFGETSGAPFTVSLEAAQALMARLALTTGDMETAKNMAETLIANPKFKLSENYDNIFTTTNNSEIIFSFRNNTSEGGQNLYALFTTYNSPMKGSWFLCPSPESEKLFEDPADTRNNTCITTLESVSETYIIMNKFRDFTPLIVSRIAEMYLISAEAQGRNGLNRLNELRRSRGLNPYNNSDIASEEDYQKKVALERRKELYCEGFLFFDLIRTNKISEEVVSMNGKTNLYLPLPESEVQYNPNLNEYN”, the “soluble on expression in E. coli” value is “not soluble”.

For the sequence “MGSDKIHHHHHHVTDSDSQPVNEFPIAPPAPRKGRGAVTNLQGRYEVDQREAIDDGWLSLAEDDDEPKVLRTQVFEERAKTILTRNASPDIPFGVSLNPYRGCEHGCIYCFARPTHSYLGLSPGLDFESRIYAKVNAPELLERELSKKSYVPEPIALGVNTDAWQPAERDLQLTRRVIEVLSERHHPFAAITKSSLIERDLDLLAPMAARGQFMAAITITTLDAGIARTLEPRAATPSRRLRTIRTLSEAGIPVGVSIAPVIPFVTEPDMERVLEACAEAGASNASYIVLRLPWEVAPLFKDWLAAYFPDRAERVMGRVRDMRGGKDYDSSFSTRMKGEGLWADLLKQRFHKAVRRLGLNRRDRGILDMSHFRRIEPPRAGQPARNDSQLDLF”, the “soluble on expression in E. coli” value is “not soluble”.

On to “MGSDKIHHHHHHVTLRQRIQAMSDCNRDPVSQITDLSGALVTIVPSLLACVGMVFASNLTDVTAEALLYDYREAANPLGQRLIARVPYQDWGAELHQTPETAIIPLDLSEALGCEGPATSPSLLANFVHILPNQAIETTAIATSQIFYVLRGQGVTRVADQEIAWTEGCCLALPADAIATHYAQTDSAFYWVHDAPLLRYLGVKPDRARFQPTLYRRQDLEATLAAIAADPQSRKANRLSVLLANQNFPQTRTITHTIWAMFGLLPPDVVQAPHRHQSVALDLILDCQPGCYTLVGTQLDERGQIRNPVRVDWRPYSVFVTPPGYWHAHYNESGQEAHLLPIQDAGLHTYLRTLDILFARHNGQISDEAA”, for which the “soluble on expression in E. coli” value is given as “not soluble”.

Take “MGSDKIHHHHHHVYTIARLHNFGCAFLYSPLTYPLYRSWLRTLTIKGNIIAIGASVADKPVGLALAEILRDGSAKLLSIFVDPNSRCLGIGTALVHSLEEELILRNCTSIEIVYIAGKSTSLALECLLKKCNWPSAKPRMLICKTTTNDMTNAPWMKLSRMPAAYEIFPWMEITFQERVALKKQQEEKRWMASDAIPFDYEQDLEPINSIGLRYKGEVVGWLITHRTAPDTIRYTCSYVRPDIQKMGRIIPLYIRATQLQMEAGISRGTWTVSLMHTSMIAFVKKHMGPYLISLEQSMESSKLLSHL”: the “soluble on expression in E. coli” value is on record as “not soluble”.

For the sequence “MGSENSALKSYTLREPPFTLPSGLAVYPAVLQDGKFASVFVYKRENEDKVNKAAKHLKTLRHPCLLRFLSCTVEADGIHLVTERVQPLEVALETLSSAEVCAGIYDILLALIFLHDRGHLTHNNVCLSSVFVSEDGHWKLGGMETVCKVSQATPEFLRSIQSIRDPASIPPEEMSPEFTTLPECHGHARDAFSFGTLVESLLTILNEQVSADVLSSFQQTLHSTLLNPIPKCRPALCTLLSHDFFRNDFLEVVNFLKSLTLKSEEEKTEFFKFLLDRVSCLSEELIASRLVPLLLNQLVFAEPVAVKSFLPYLLGPKKDHAQGETPCLLSPALFQSRVIPVLLQLFEVHEEHVRMVLLSHIEAYVEHFTQEQLKKVILPQVLLGLRDTSDSIVAITLHSLAVLVSLLGPEVVVGGERTKIFKRTAPSFTKNTDLSLEGDPFSQPIKFPINGLSDVKNTSEDSENFPSSSKKSEEWPDWSEPEEPENQTVNIQIWPREPCDDVKSQCTTLDVEESSWDDCEPSSLDTKVNPGGGITATKPVTSAEQKPIPALLSLTEESMPWKSSLPQKISLVQRGDDADQIEPPKVSSQERPLKVPSELGLGEEFTIQVKKKPVKDPEMDWFADMIPEIKPSAAFLILPELRTEMVPKKDDVSPVMQFSSKFAAAEITEGEAEGWEEEGELNWEDNNW”, the “soluble on expression in E. coli” value was “soluble”.

For the sequence “MGSGILFVFAIGAIPSQAQDIGSTDRLNVENWQEWETVGEAQLTWFVFDIYRSRLKAPNGQYLVSTDVSPHPFALEINYQRDISKQQLLEVTDEQWQKLGFPKSNRQQWITQLSFIFPSIKNGDELTYVTDGDKGQIIYRQAGTKTQKMVGEITDERMNDAFLSIWLSPKTEFPKLRKQLIGQVRP”, the “soluble on expression in E. coli” value is “not soluble”.

“MGSHHHHHHDITSLYKKAGSAAAVLEENLYFGGSFTMANVNKTPGKTRRAEVAGGGFAGLTAAIALKQNGWDVRLHEKSSELRAFGAGIYLWHNGLRVLEGLGALDDVLQGSHTPPTYETWMHNKSVSKETFNGLPWRIMTRSHLHDALVNRARALGVDISVNSEAVAADPVGRLTLQTGEVLEADLIVGADGVGSKVRDSIGFKQDRWVSKDGLIRLIVPRMKKELGHGEWDNTIDMWNFWPRVQRILYSPCNENELYLGLMAPAADPRGSSVPIDLEVWVEMFPFLEPCLIEAAKLKTARYDKYETTKLDSWTRGKVALVGDAAHAMCPALAQGAGCAMVNAFSLSQDLEEGSSVEDALVAWETRIRPITDRCQALSGDYAANRSLSKGNMFTPAALEAARYDPLRRVYSWPQ”: the “soluble on expression in E. coli” value is on record as “soluble”.

Turning to “MGSHHHHHHDITSLYKKAGSENLYFQMKLRYLNILKEKLGREPTFVELQAFSVMWSEHCGYSHTKKYIRRLPKTGFEGNAGVVNLDDYYSVAFKIESHNHPSAIEPYNGAATGVGGIIRDVLAMGARPTAIFDSLHMSRIIDGIIEGIADYGNSIGVPTVGGELRISSLYAHNPLVNVLAAGVVRNDMLVDSKASRPGQVIVIFGGATGRDGIHGASFASEDLTGDKATKLSIQVGDPFAEKMLIEAFLEMVEEGLVEGAQDLGAGGVLSATSELVAKGNLGAIVHLDRVPLREPDMEPWEILISESQERMAVVTSPQKASRILEIARKHLLFGDVVAEVIEEPVYRVMYRNDLVMEVPVQLLANAPEEDIVEYTPGKIPEFKRVEFEEVNAREVFEQYDHMVGTDTVVPPGFGAAVMRIKRDGGYSLVTHSRADLALQDTYWGTLIAVLESVRKTLSVGAEPLAITNCVNYGDPDVDPVGLSAMMTALKNACEFSGVPVASGNASLYNTYQGKPIPPTLVVGMLGKVNPQKVAKPKPSKVFAVGWNDFELEREKELWRAIRKLSEEGAFILSSSQLLTRTHVETFREYGLKIEVKLPEVRPAHQMVLVFSERTPVVDVPVKEIGTLSR”, the “soluble on expression in E. coli” value is on record as “soluble”.

In the case of “MGSKKLKRVGLSQELCDRLSRHQILTCQDFLCLSPLELMKVTGLSYRGVHELLCMVSRACAPKMQTAYGIKAQRSADFSPAFLSTTLSALDEALHGGVACGSLTEITGPPGCGKTQFCIMMSILATLPTNMGGLEGAVVYIDTESAFSAERLVEIAESRFPRYFNTEEKLLLTSSKVHLYRELTCDEVLQRIESLEEEIISKGIKLVILDSVASVVRKEFDAQLQGNLKERNKFLAREASSLKYLAEEFSIPVILTNQITTHLSGALASQADLVSPADDLSLSEGTSGSSCVIAALGNTWSHSVNTRLILQYLDSERRQILIAKSPLAPFTSFVYTIKEEGLVLQAYGNS”, the “soluble on expression in E. coli” value was “soluble”.

As to “MGSLDHGAKEQLQSEEFGERKQFEDKELGAKKDEALHVLEGLITRSKTKLLNQAITTLLQKIEGSLKLEACPTTLVVIQAV”, the “soluble on expression in E. coli” value is reported as “not soluble”.

On to “MGSQVQKSDEITFSDYLGLMTCVYEWADSYDSKDWDRLRKVIAPTLRIDYRSFLDKLWEAMPAEEFVGMVSSKQVLGDPTLRTQHFIGGTRWEKVSEDEVIGYHQLRVPHQRYKDTTMKEVTMKGHAHSANLHWYKKIDGVWKFAGLKPDIRWGEFDFDRIAEDGRETFGDK”, for which the “soluble on expression in E. coli” value is “soluble”.

In the case of “MGSSHHHHHHGKTIFVIVPTNEEQVAFLEALAKQDELNFDWQNPPTEPGQPVVILIPSDMVEWFLEMLKAKGIPFTVYVEEGGSENLYFQGGGGGGAHSLMRQMMLASVIRFTAVFLGIRRCRGAFVVAPLFVLQPLLQHLQQLITHPLTCLQGGIQWQLHALVEHLVHLQHLPSPRVQLSHVTKKRRAPVRKVVCGRIIHVHRTLLLLKQLRLLGVPGTQRAESSEHGGEPLTAVLVQLDKSIASRSGDNGDGGGRCR”, the “soluble on expression in E. coli” value was “not soluble”.

Consider “MGSSHHHHHHMKKARMTVDKDYKIAEIDKRIYGSFVEHLGRAVYDGLYQPGNSKSDEDGFRKDVIELVKELNVPIIRYPGGNFVSNYFWEDGVGPVEDRPRRLDLAWKSIEPNQVGINEFAKWCKKVNAEIMMAVNLGTRGISDACNLLEYCNHPGGSKYSDMRIKHGVKEPHNIKVWCLGNAMDGPWQVGHKTMDEYGRIAEETARAMKMIDPSIELVACGSSSKDMPTFPQWEATVLDYAYDYVDYISLHQYYGNKENDTADFLAKSDDLDDFIRSVIATCDYIKAKKRSKKDIYLSFDEWNVWYHSNNEDANIMQNEPWRIAPPLLEDIYTFEDALLVGLMLITLMKHADRIKIACLAQLINVIAPIVTERNGGAAWRQTIFYPFMHASKYGRGIVLQPVINSPLHDTSKHEDVTDIESVAIYNEEKEEVTIFAVNRNIHEDIVLVSDVRGMKDYRLLEHIVLEHQDLKIRNSVNGEEVYPKNSDKSSFDDGILTSMLRRASWNVIRIGK”, for which the “soluble on expression in E. coli” value was “soluble”.

For “MGSSHHHHHHSQDPMLSKDIIKLLNEQVNKEMNSSNLYMSMSSWCYTHSLDGAGLFLFDHAAEEYEHAKKLIIFLNENNVPVQLTSISAPEHKFEGLTQIFQKAYEHEQHISESINNIVDHAIKSKDHATFNFLQWYVAEQHEEEVLFKDILDKIELIGNENHGLYLADQYVKGIAKSRKS”, the “soluble on expression in E. coli” value is recorded as “soluble”.

Turning to “MGSSHHHHHHSSGENLYFQGHMSVSAFNRRWAAVILEALTRHGVRHICIAPGSRSTPLTLAAAENSAFIHHTHFDERGLGHLALGLAKVSKQPVAVIVTSGTAVANLYPALIEAGLTGEKLILLTADRPPELIDCGANQAIRQPGMFASHPTHSISLPRPTQDIPARWLVSTIDHALGTLHAGGVHINCPFAEPLYGEMDDTGLSWQQRLGDWWQDDKPWLREAPRLESEKQRDWFFWRQKRGVVVAGRMSAEEGKKVALWAQTLGWPLIGDVLSQTGQPLPCADLWLGNAKATSELQQAQIVVQLGSSLTGKRLLQWQASCEPEEYWIVDDIEGRLDPAHHRGRRLIANIADWLELHPAEKRQPWCVEIPRLAEQAMQAVIARRDAFGEAQLAHRICDYLPEQGQLFVGNSLVVRLIDALSQLPAGYPVYSNRGASGIDGLLSTAAGVQRASGKPTLAIVGDLSALYDLNALALLRQVSAPLVLIVVNNNGGQIFSLLPTPQSERERFYLMPQNVHFEHAAAMFELKYHRPQNWQELETAFADAWRTPTTTVIEMVVNDTDGAQTLQQLLAQVSHL”, the “soluble on expression in E. coli” value was “soluble”.

Turning to “MGSSHHHHHHSSGLVPRGSKTFIIGISGVTNSGKTTLAKNLQKHLPNCSVISQDDFFKPESEIETDKNGFLQYDVLEALNMEKMMSAISCWMESARHSVVSTDQESAEEIPILIIEGFLLFNYKPLDTIWNRSYFLTIPYEECKRRRSTRVYQPPDSPGYFDGHVWPMYLKYRQEMQDITWEVVYLDGTKSEEDLFLQVYEDLIQEL”, the “soluble on expression in E. coli” value is listed as “soluble”.

Take “MGSSRKTANAATNNFPCHGSCPEPSFQIQVIARGVRRRRSPIDQPSMEADVDTDIIDHLKTLHTSEIDARNGYEEALEDAEGKGLTSLFRDMIALHHGNAEELAGMLINAGETADDSGSFMSVVHRTIMSVRSLFDGLDGSVLPGLIDGEKRNLSKYDDALKAIAGIPSISSTLSAQRAKISEKIALMEQQKAAYEAAT”: the “soluble on expression in E. coli” value is “not soluble”.

The values above are taken from the DeepSol protein solubility set.
